Laboratory results taken from the supplement of paper PMC10567573.

B1: ZER1 (parent)
chain: FDGPEAWGVCEPQREEVEERMWAA

Variants of: B1
Experiment: protein stability index of a GFP-peptide fusion (GPS, HEK-293T) (PSI 1-6); higher = more stable
Conditions: c terminus: a fixed tail appended
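Note: lentivirally expressed fusions sorted by FACS into six bins by GFP to DsRed ratio, PSI derived from sequencing read proportions per bin multiplied by bin number.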

Protein stability index of substitutions, site by site:
C10: G 4.03 | N 3.26 | W 2.6 | P 3.64 | H 3.64 | K 3.48 | T 3.3 | V 2.55 | F 3.21 | S 2.66 | E 3.93 | Y 2.86 | M 3.13 | I 2.86 | R 2.6 | L 3.15 | A 3.02 | D 4.42 | Q 3.26
E15: M 2.34 | Y 2.32 | H 1.79 | K 2.92 | P 1.46 | D 2.43 | Q 2.5 | F 1.56 | G 2.19 | W 1.52 | A 2.45 | L 2.2 | T 2.62 | N 2.31 | I 2.02 | R 2.79 | C 3.02 | V 2.63 | S 2.13
E16: A 2.33 | M 1.99 | I 2.34 | F 2.62 | S 2.25 | P 2.04 | L 1.62 | N 2.37 | T 2.72 | R 2.16 | H 2.66 | K 1.98 | G 2.04 | V 2.02 | D 2.14 | Y 2.11 | W 1.63 | C 2.24
V17: C 2.3 | E 3.18 | R 2.24 | G 2.36 | S 2.64 | A 2.27 | P 2.65 | I 2.26 | W 2.44 | M 2.26 | H 2.77 | Q 2.55 | D 2.61 | L 2.34 | T 2.47 | K 2.41 | F 3.62 | N 3.28 | Y 2.75
E11: S 2.73 | K 2.12 | T 2.58 | M 3.24 | F 1.89 | V 1.96 | P 2.64 | D 2.67 | N 1.83 | L 1.85 | I 3.01 | W 1.81 | Y 1.87 | Q 1.9 | R 1.93 | H 2.55 | A 1.87 | C 2.15
Q13: S 2.71 | R 2.21 | W 2.17 | G 2.75 | E 2.86 | N 2.94 | Y 2.39 | V 3.23 | A 2.72 | I 2.76 | L 2.68 | F 2.31 | T 2.43 | D 2.92 | M 2.46 | H 2.44 | K 2.91
M21: L 2.71 | A 3.06 | H 2.21 | K 2.76 | G 3.27 | S 2.38 | E 3.56 | T 2.4 | R 2.69 | W 2.46 | Q 2.89 | C 2.46 | P 2.47 | V 3.45 | D 3.16 | F 2.24 | I 2.63 | Y 2.39 | N 2.2
E18: I 2.21 | P 2.69 | L 2.11 | K 1.57 | A 2.27 | W 2.04 | V 2.12 | H 3.04 | D 2.68 | M 1.84 | Q 1.95 | T 2.62 | R 2.53 | G 3.36 | S 2.52 | C 2 | F 2.5 | Y 2.08 | N 1.92
R20: N 2.75 | G 2.96 | E 3.17 | Q 2.77 | W 2.15 | V 2.67 | C 2.6 | L 2.55 | A 3.1 | P 2.92 | Y 2.5 | I 2.27 | M 3.09 | H 2.55 | T 3.23 | D 2.94 | F 2.65 | S 2.79 | K 2.34
W7: N 4.58 | H 4.63 | S 4.92 | Q 5.22 | E 4.54 | V 4.98 | M 3.64 | A 4.29 | T 4.69 | I 4.89 | R 3.97 | G 4.94 | P 4.52 | D 5.1 | Y 3.98 | K 4.81 | C 4.66
A6: E 4.45 | H 2.38 | L 1.56 | I 2.43 | V 2.76 | Y 1.82 | W 1.63 | T 2.48 | N 3.6 | G 3.38 | K 3.02 | R 3.35 | C 2.57 | Q 3.59 | D 4.67 | P 3.77 | S 3.53
E5: S 2.61 | W 2.54 | C 3.73 | N 1.95 | L 1.64 | F 3.67 | A 2.82 | D 2.99 | H 2.59 | R 3.48 | Q 3.54 | I 2.94 | P 3.42 | G 3.26 | V 3.33 | Y 2.76 | K 3.13
V9: Q 3.05 | N 3.35 | S 4.12 | K 2.59 | G 3.25 | T 3.15 | M 2.63 | E 4.03 | R 2.5 | H 3.18 | I 2.09 | Y 2.48 | A 3.21 | W 3.22 | D 4.92 | P 3.08 | C 2.03 | F 2.94
E19: Y 1.94 | W 2.05 | D 2.48 | S 2.45 | C 2.05 | R 2.35 | H 1.91 | L 2.17 | I 2.09 | N 2.4 | M 2.22 | F 2.1 | K 3.35 | Q 2.55 | T 2.87 | P 2.21 | A 2.68 | G 2.15 | V 1.98
R14: G 3.36 | T 2.54 | I 2.97 | L 1.8 | D 2.88 | M 3.08 | H 2.31 | A 2.18 | S 2.56 | V 2.16 | Y 2.46 | E 3.16 | Q 2.09 | P 3.26 | N 2.86 | F 2.74 | C 2.25 | W 2.52
W22: F 2.57 | D 3.75 | A 2.79 | E 3.79 | C 3.17 | G 2.81
G3: S 1.96 | V 1.63 | T 1.98 | W 2.12
P4: D 3.89 | M 3.65 | S 3.29 | R 2.81 | L 2.47 | F 1.91 | T 3.25 | V 2.48 | E 4.48 | Q 3.25 | Y 1.95 | C 2.63 | I 3.23 | H 1.79 | K 3.02 | A 2.48 | G 2.73
G8: N 2.62 | Y 3.39 | S 1.95 | C 2.33 | F 1.55 | D 3.75 | P 4.17 | Q 2.74 | R 2.42 | I 2.25 | L 3.64 | A 1.96 | V 1.6 | M 1.79 | K 2.25 | E 4.19 | H 2.33
P12: V 2.47 | R 3.53 | T 3.17 | H 3.17 | D 2.88 | M 3.3 | C 2.33 | F 2.93 | G 2.69 | W 3.81 | S 3.14 | K 2.9 | E 3.17 | I 2.31 | Y 2.64 | L 2.47 | Q 3.22
